Test: label from the status in PepcDB records

MAHRTWGGRFGEGPDALAARFNASLAFDRALWREDLWQNRVHARMLHAVGLLSAEELEAILKGLDRIEEEIEAGTFPWREELEDVHMNLEARLTELVGPPGGKLHTARSRNDQVATDLRLYLRGAIDELLALLLALRRVLVREAEKHLDPLYVLPGYTHLQRAQPVLLAHWFLAYYEMLKRDAGRLEDAKERLNESPLGAAALAGTGFPIDRHFTARELGFKAPMRNSLDAVASRDFALEVLSALNIGMLHLSRMAEELILYSTEEFGFVEVPDAFATGSSIMPQKKNPDILELIRAKAGRVLGAFVGLSAVVKGLPLAYNKDLQEDKEPLLDALATYRDSLRLLAALLPGLKWRRERMWRAAEGGYTLATELADYLAEKGLPFREAHHVVGRLVRRLVEEGRALKDLTLEELQAHHPLFAEDALPLLRLETAIHRRRSYGGTAPEAVRERLEEAKKEVGLD
protein production: not failed

MLEFTKRSLMNKYNINERVLELYERALNDVEKEFKYYDEIREYNQLKVLKAFQEERISESHFTNSSGYGYNDIGRDSLDRVYANIFNTESAFVRPHFVNGTHAIGAALFGNLRPNDTMMSICGMPYDTLHDIIGMDDSKKVGSLREYGVKYKMVDLKDGKVDINTVKEELKKDDSIKLIHIQRSTGYGWRKSLRIAEIAEIIKSIREVNENVIVFVDNCYGEFVEEKEPTDVGADIIAGSLIKNIGGGIATTGGYIAGKEEYVTQATFRVTVPGIGGECGSTFGVMRSLYEGLFMAPHVTIEAVKGAVFCARIMELAGFDVLPKYNDKRTDIIQAIKFNDEKKLIDFIKGIQTASPVDSFVQCEAWDMPGYEDKVIMAAGTFVQGASIELSADAPIREPYIGYLQGGLTFDHAKLGVLIALSKLIM
protein production: not failed

MPSSSNSAAFSLDEFAKALDKHDYHAEKGQTVHGKICQHANEGVYVDFGGKSPGFVPVQELGLRPHAEIEDSFPLDSAWDFLVTSEQNDEGQVRLSRRQLQIQQSWENLAELEESGKTLEMVVTGTNKGGVVGDVEGLRGFIPRSHLMHKDNMDALVGQVLKAHILEANQDNNKLVLTQRRIQQAESMGKIAAGNIYEGKVAKIQPYGVFVEIEGVTGLLHVSQVSGTRVDSLNTLFAFGQAISVYVQEIDEYKNRISLSTRILETYPGELVEKFDEMMADAPNRLPLVQSKQNLGDKQEQLEKSLEHHHHHH
protein production: failed

HALAERDRPLPTHLVLSGRMPPHTGYSPLLGAMDDNQLWQHVCSESLLPLPTDASCSFARHALGKLKADLALNAQLTYRFIRPLPVPLYVLNGQDDPLLELHRLDEWQRYTSTSFHSEYVPGGHFFFNINFQLLYLPLLTALD
protein production: failed

MSLISFAPHSGVWLLTTPHTSYALRIDASGAPCHLAWGPRLTLAAAEELAVPEPPAASSFEGRPSVGEELPVDGGVRYGPPSLQVRFADGSRAFEWQPTGHRVHESADGAHELVLFFRDRRYPLQVALHYRVRADTDVIERWTVVRNGGDEPVTLLRADSAAWTLPPLADYRLSHVTGQWSAESRLRRDRLPYGETVLTSRRGITSHHTNPWLMVDSGEATEDHGRVWSAALAWSGSWRITTQRTPDGRTGFTGGVGHDGTGVPLTPGEEFTAPAFAGLFTADGFGAASRAWHAYTLAHVLPHPDEPVPVLYNSWEATGFDVDEVGQKALAERAAALGVELYVVDDGWFGGRRSDRAGLGDWTPAPDRFPDGLGPLADRVRELGMRFGLWVEPEMVNPDSDLYRAHPDWVLHLPDRSRSELRNQLVLNFARRDVADWAYGWLTELVGAHRIDFLKWDMNRAFSEAGWPGQQDGADRLGTQYVRHLYGVIDRLRADHPGLRIESCSGGGGRIDLGILGRTDQTWASDNTDAADRLWIQHGFSQIYPARTMGCWVTDAPNQFTGRGLPLRFRFHAAMAGALGIGGDLARWSEEELREGAALVTEYKKVRHLVQHGRLDRLSPPSGQSPAVVQYTSADGSESLVLAWRGVPRPGDADLPVRLRALTPAARYRDSRTGTVHHASVLGDYGLRLDLPAGDWSSVAMHLVREPEAV
protein production: failed

MSLDIAVVGIGYVGLVSATCFAELGANVRCIDTDRNKIEQLNSGTIPIYEPGLEKMIARNVKAGRLRFGTEIEQAVPEADIIFIAVGTPAGEDGSADMSYVLDAARSIGRAMSRYILIVTKSTVPVGSYRLIRKAIQEELDKREVLIDFDIASNPEFLKEGNAIDDFMKPDRVVVGVDSDRARELITSLYKPMLLNNFRVLFMDIASAEMTKYAANAMLATRISFMNDVANLCERVGADVSMVRLGIGSDSRIGSKFLYPGCGYGGSCFPKDVKALIRTAEDNGYRMEVLEAVERVNEKQKSILFDKFSTYYKGNVQGRCVAIWGLSFKPGTDDMREAPSLVLIEKLLEVGCRVRVYDPVAMKEAQKRLGDKVEYTTDMYDAVRGAEALFHVTEWKEFRMPDWSALSQAMAASLVIDGRNVYELPADSDFTLLNIGNSAIESEGHHHHHH
protein production: not failed

MNDVASTKSRVAAVSVVASATMAAAKFAVGIAIGSLALISEALHSSIDLVATIITWFVVRISDRPADDAHHYGHGKIESLSALGVIAMLYVLAGGILVEAYSRLREGAAPPTFSYLAFVILGVDIVVNLWRAWALHRTAVATKSQALAADALHFASDVLGSFAVIAGLALAAAGFHWGDAAAAIGVAVMISLLGLRLGRSTIQTLLDRAPEGVSDKAREAIGAVPGVVGVERLRARMVGPTHFIDALVEVPRTYPIDRIDEIKRKAQESMSEIFGDADLTFTAIPVARDNESVRERIMVIARNSGLAVHHVTVHDLGGHKLIVSIDLEVDGNMPLIEAHDIAHKLEDHIREDFGADVEVDTHIEPLEPELPQGSDAEPARVEEIRLALRRLTHDGAIHDVHSVRVRDTDAGEIVNFHCYADPSMSVISVHDHVDEIERKLRAKFPSVKRVISHAEPPNAD
protein production: failed

MDQFEYIITLEFGNQNQVESAYQIFKSIPKKLKAKSIGEESIKSNNQDWQDWRVCDLEIDMITDFKNQTSKEEESDLITSQYLGHGIIRLFKLSNANNTLNEKEILTIPGDDTMICILFVPTYFTVHDLLHFYIGDDIVNKQVSNFRILRNQQKGMGFNFTVLIKFRNALDAKNFKEEFNGKSFSRMDPETCHVISVKEIVFQKKLFQRPAANEDFPYLLTDPFTVKKKKELVKVELPTCPVCLERMDSETTGLVTIPCQHTFHCQCLNKWKNSRCPVCRHSSLRLSRESLLKQAGDSAHCATCGSTDNLWICLICGNVGCGRYNSKHAIKHYEETLHCFAMDIRTQRVWDYAGDNYVHRLVQNEVDGKLVEVGGSGDDDNNDIGNSDELQNVVYGNRSKNGEKSNSNKKDGELAANFLRHREYHLEYVQVLISQLESQREYYELKLQEKDQTASDSSNVESLKKSMEDLKLQFQVTQKEWQKREMAQKSKLEEDMLVIEGLQANLDHLSKKQEQLERENKALEESKQDLEEQVKDLMFYLDSQEKFKDADESVKEGTILIQQPHGAAQASKSKKKRNKNKKAGK
protein production: failed

MERSAFMELDAGSRLVMHLREWPALLVSSTGWTEFEQLTLDGHNLPSLVCVITGSVDLGVCLHMSSSGLDLPMKVVDMFGCCLPVCAVNFKCLHELVKHEENGLVFEDSEELAALQMLFSNFPDPAGKLNQFWKDLRESQQLRWDESWVQTVLPLVMDIQLLGQRLKPRDPCCPSRSFFSESQGKPF
protein production: failed

MNVFAFSISGGGSERSYKETEKTSAMTTTHSTKLQPSQAILFKMREDAPPLNLTEEMPPPFPTKANYLIHPVRLEHHHHHH
protein production: failed

MAGAAQSHAVPGFRRNMVTICAMTATIMQALDTTIANVALPYMQGSLSASQDQINWVLTSYIVAAAIMTAPVGWIANRFGRKRIFIICSAGFTIASVMCGLAQDITQMVVFRLLQGVFGAALVPLSQAVMLDSYALHERAKAMSIWGMGVMMGPIMGPSLGAWLTETYSWHWVFFVNLPFGAITVLGLAMFMDETDKNQELKFDWFGFAALAVGIGAMQLALDRGEQLDWFNSPEIIIESIVSVVGFYYFFAHSFTTERPFIQFAIFKDRNFVGGVVFMTVMGLVLFSTMALSSPFLQNVEGYPIMTAGLLLASRGCGTFVAMMIVGRIMRYIEARTLIATGLSLTCASLYVMTGWTDQTSVSSVVVTSIIQGFGFGLVFVPLSTVAFMTLPGQLRTDGTAMLTLVRNVASSVGISVVIAKLSSGTTTAHAILTEHINPFNNALQMPNVTGMIDLSTTTGKAMMDAIVTMQAQIIAFSHDYAMVMFLTAAAVPMAIIIGSTKAALRKQSEAPADHAAVME
protein production: failed

SLKLAKNVEIEIRTKIHPTESEDKVLKAIRNIFPDAEIEISEEGEVYGRAYSLDRFRELLRKQRILDTARSEILKGRNGKEVTIYLNKQTATVSRINFCDENAVLSPIKVTFRLNNIPFSRFLDYIAPETKDGRPVKEIDKL
protein production: not failed

MALSDTKLRKIKAPYNGEAELADRDGLSVRVSPKALITFNYRFRWEGKQQRIKLGRYPGLKLIDARKKVNEYRHNLDEGLDPRVVQNESRSHNLFGDMCEAFMTKYVMTELRPKTQTLYKSTFNKYVTPYKNIDIERYKYTDWIAYFDWVKKESSSANAGSVLKRFKAVANWAKARGQIKHSHLIDIPIKAIGSHQQKRERCLEWDEVIGLWRQIESSKSTPQCKTCIQLLLLTGARNAEIREARRDEFDLDKNIWLLPPERSKTKKQVRRPLSTGVIELINKLDLIYGQDREYLIAGDIKGKPLTTHAVNRFVQRMNNHLKYPHFVPHDFRRTIVTRLSEHKVELHVTEKMLGHELGGILTRYNKHDWIDEQREAYELYWQKVTLLLKN
protein production: failed

MGHHHHHHSHGYLLKPEFMRRPDKSFDPFTEVIVDGIVANALRVKVISGQFLSDRKVGIYVEVDMFGLPVDTRRKYRTRTSQGNSFNPVWDEEPFDFPKVVLPTLASLRIAAFEEGGKFVGHRILPVSAIRSGYHYVCLRNEANQPLCLPALLIYTEASDYIPDDHQDYAEALINPIKHVSLMDQRARQLAALIG
protein production: failed

MQQTVTYGAKWKQFLTIFTPIVITQLTLFSMTFFDTTMSGNYSNQALAGVAIGSSFWAPVNAAFSGLLMAITPIIAQLIGAKKEKQVKNTVHNGLYIALFLAFILILINFLVVPTILTHMPVTAEVAHIARHFLNGICIGIPAFFISAILRSFIDSLGLTRVTMLITLCTVPFNIFLNYCFIFGNFGFPEMGGAGSGYATGITYWLVVLVSVILIQTQTRLRKFGIFKGLTALRFSKVKEIIGIGVPNGLTILFETSIFSAVTILMGAFGTETIAAHQSANSVCTLLYAFPLSVASTLTILGGYETGAKRLKDAKQYRHIGMTAAILIGCINGAILFFFRDIIAGFYTNDAELSDLIMHFLVYAILFQFADAVLSPVLGALRGYKDVAITSIIAFISYWLIGLPVGYGLSFTNLGPFGYWIGLSTGLFVAAFILSIRVRKTERKLSLNAKNAEISS
protein production: not failed

MIEHIIDIIIVLLAKLGYAGTFFGMLFESACIPIPSEIVLPFGGYLSSSSAPQGHTLNLVLVIISATLGGTVGSILAYTIGAKGGRILVYKYASKLHLSKEKIEKSEAVFDKYGDKIIFLSRLLPIIRTFISLPAGIAKMDFTKFTIYTLVGSAIWSTLLVYAGFVMGKNWESIRSYFHIADYLVAGAIILFIVYRIIVYIKKKTKK
protein production: failed

MYNLLLTILLVLSGLLEIAIFMQPQKNPSSNVFDSSGSEALFERTKARGFEAFMQRFTAVLVFFWLAIALVLAILSSK
protein production: failed

MKKMLKVMLATLVLGWAVMAHAEDPHVEYTDAIGKGDLKVVKQYFNNPYKVDELFFAWSGLEIAANKGQLEMVKFFVENGADVNYKHPITKMTALHLAAYQGNKDVVKYLIDHGADVNAKLRGNVSILRALRDEGRTDMVDFLIAAGAKDDGCQEKKCY
protein production: failed

METSLISPMKENNTAQPQQREENTQQNLNAAVPIKQQSPGLLPEALEVGVKPDPASQILATQEIENPVAGFEGDSDKFHISTDEMAEHLQASDLWYCPDGSFVKKIIVHGHGLDKPKLGSKCRVLALGFPFGSGMPEGWTELTIGTGQWREKTWGELTEKCLESMRQGEEAKIHLPGSSTPLAKLRLDSFTNGRDSWELEAVEKEALAKEEHRRGTELFRAGNPQGAARCYGRALRLLLTLPPPGPPERTILHANLAACQLLLGHPQLAAQSCDRVLEREPGHLKALYRRGVAQAALGDLDKATADLKKVLAVDPKNRAAKEELGKVVIQGKIQDAGLARGLRKMFS
protein production: failed

— a protein production outcome set (Wang et al. 2014)
